For this experiment, the target named is SARS-CoV-2 S2 protein (SARS-CoV-2 (Wuhan-Hu-1 assumed), UniProt P0DTC2). Description: ELISA. In general terms: In an ELISA, binding on a coated surface is turned into a signal by an enzyme label.

B1: monoclonal antibody 7F3 (antibody, V domains shown)
VH: EVQLVESGGGLVKPGRSLRLSCTASGFTFGDYAMSWFRQAPGKGLEWVGFIRSKAYGGTTEYAASVKGRFTISRDDSKSIAYLQMNSLKTEDTAVYYCTRDRYARYDILTGLSPAGADYFYYAMDVWGQGTTVTVSS
VL: EIVLTQSPATLSLSPGERATLSCRASQSVSSYLAWYQQKPGQAPRLLIYDASNRATGIPARFSGSGSGTDFTLTISSLEPEDFAVYYCQQRSNWPQYTFGQGTKLEIK
With B1, the binding result is on record as “no binding”.

B2: monoclonal antibody 4L12 (antibody, V domains shown)
VH: EVQLVESGGGLVQPGGSLRLSCAASGITVSSNYMNWVRQAPGRGLEWVSLLYSGGSTYYADSVKGRFTISRDNSKNTLYLQMNSLRAEDTAVYYCARDLITYGMDVWGQGTTVTVSS
VL: AIQLTQSPSSLSASVGDRVTITCRASQGISSYLAWYQQKPGKAPKLLIYAASTLQSGVPSRFSGSGSGTDFTLTISSLQPEDFATYYCQQLNSYPPLTFGGGTKVEIK
On to B2, for which the binding result is on record as “no binding”.

The record behind these values is publication doi:10.1101/2020.10.08.20209114 (medRxiv, 2020).
